According to the nanobody polyreactivity screen of Harvey et al. (2022):

Assay: yeast display, Sf9 membrane polyspecificity reagent, FACS + sequencing; frameworks hold sequencing errors
Summary of the method: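 Nanobodies from a synthetic yeast display library (Saccharomyces cerevisiae BJ5465), induced 36–48 hours with galactose, were stained 1 hour at 4 °C with 10% biotinylated, detergent-solubilized Sf9 membrane reagent, enriched on streptavidin microbeads, then FACS-sorted. Anti-HA (expression) and streptavidin (reagent binding) fluorescence set low and high (top ~1%) gates. Polyreactivity labels come from the gate of origin. Genes were colony-PCR amplified, MiSeq 2 × 250 sequenced and filtered by CDR length.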

QVQLVESGGCLVQAGGSLRLSCAASGSISYSYSMGWYRQAPGKERELVATISWGGGRTYYADSVKGRFTISRDNAKNTVYLQMNSLKPEDTAVYYFATAYRFRYGFAKRYDYWGQGTQVTVSS
polyreactivity (PSR sort gate): low polyreactivity

QVQLVESGGGLVQAGGSLRLSCAASGRTFGPYAMGWYRQAPGKDSDLVATISWNGGSTYYADSVKGRFTISRDYAKNSVYLQMNSLKPEDTAVYYCAARHWSQSWKYGYWGQGTQVTVSS
polyreactivity (PSR sort gate): high polyreactivity

QVQLVESGGGLVQEGGSLRLTCAASGRTFTVNAMGWYRQAPGKERELVARISYGGARTYYADSVKGRFTISRDNAKNTVYLQMNSLKPEDTAVYYCAAPGPRKYEYDYWGQGTQVTVSS
polyreactivity (PSR sort gate): high polyreactivity

QVQLVESGGGLVHSGGSLRLSCAASGSIFDYYAMGLYRQAPGKERELVAAISWRGGTTYYADSVKGRFTISRDNANNTVFLQMNRLKPEYTAVYYCNADKRFRRYDYWGQGNQVTVSS
polyreactivity (PSR sort gate): high polyreactivity

QVQLVESGGGLVQAGGSLRLSCAASGSTFDDYAMGWYRQAPGKEREFVAAITYGGGNTYYADSVKGRFTISRDNAKNTVYLQMNSLKPEDTAVYYCNKLSRGFSPKYGYWGQGTQVTVSS
polyreactivity (PSR sort gate): high polyreactivity

QVQLVESGGGLVQAGGSLRLSCAASGSIFSVYAMGWYRQAPGKERELVAAINWDGTSTDYADSVKGRFTISRDNAKNTVYLQMNSLKPEDTAVYYCAAEGHTAFLVYRVSPLQYDYWGQGTQVTVSS
polyreactivity (PSR sort gate): low polyreactivity

QVQLVESGGGLGQAGGSLRLSCAASGRIFNTYAMGWYRQAPGKERELVAAITRSAGRTYYADSVKGRFTISRDNAKNTGYLQMNSQKPEDTAVYYCAAQYNYGQRSGPYGYWGQGTQVTVSS
polyreactivity (PSR sort gate): low polyreactivity

QVQLVESGGGLVQAGGSLRLSCAASGRIFDDNAMGWYRQAPGKERELVADINNATSTNYADSVKGRFTISRDNAKNTVYLQMNSLKPEDTAVYYCAADDYIYYRILGDSFVYKAYGYWGQGTQVTVSS
polyreactivity (PSR sort gate): low polyreactivity

QVQLVESGGGLVQAGGSLRLSCAASGSIFQFNAMGWYIQAPGKERELVAAISRRTGSTYYADSVKGRFTISRDNAKNTVYLQMNSLKPEDTAVYYCAAKGYGSAPTYRHNYWGQGTQVTISS
polyreactivity (PSR sort gate): high polyreactivity

QVHLVESGGGLVQAGGSLRLSCAASGSIFSVYTMGWYRQATGKEREFVPSIDWSAGSTNYADSVKGRFTISRDNAKNTVYFQRNSLKPEDTADDYCARAGSSWDTLYKYYLEHDYWGQGSQVTVSS
polyreactivity (PSR sort gate): low polyreactivity

QVQLVESGGGLVQAGGSLRLSCAASGRIFEWNTMGWYRQAPGKEREVVATISWDGGSTYYADSVKGRFTISRDNAKNTVYLQMNSLIPEDTAVYYCNKSPLNFFRFRATYDYWGQGTQVTVSS
polyreactivity (PSR sort gate): low polyreactivity

QVQLVESGGGLVQAGGSLRLSCAASGRTFISNAMGWYRQAPGKERELVADINGGGSTYYADSVKGRFTISRDNAKNTVYLQINSLKPEDTAVYYCAADVWTLDPDEYDYWGQGTQVTVSS
polyreactivity (PSR sort gate): low polyreactivity

QVQLVESGGGLVQAGGSLRLSCAASGRIFHYYAMGWYRQAPGKERELVAAINKSGGRTYYADSVKGRFTISRDNAKNTVYLQMNSLKPEDTAVYYCAAQDGYWGQGTQVTVSS
polyreactivity (PSR sort gate): high polyreactivity

QVQLVDSGGGLVQAGGSLRLSCAASGNIFVGNAMGWYRQAPGKERELVAAIRRSGGTTYYADSVKGRFTISRDNAKNTVYLQMNSLKPEDTAVYYCAASRPYQGDYWGQGTQVTVSS
polyreactivity (PSR sort gate): low polyreactivity

QVQLVESGGGLVQAGGSLRLSCAASGFTLYYNAMGWYRQAPGKERELVAAINIGDSTNYADSVKGRFTISRDNAKNTVYLQMNSLKPEDTAVYYCAAVLLPYGVFYTVAINVDYWGQGTQVTVSS
polyreactivity (PSR sort gate): low polyreactivity

QVQLVESGGGLVQAGGSLRLSCAASGRIFGYYAMGWYIQAPGKERELVAAINWRGGNTNYADSVKGRFTISRDNAKNTVYLQMNSLKPEDTAVYYCNAQVLVRPIQGEYGYWGQGTQVTVSS
polyreactivity (PSR sort gate): low polyreactivity

QVQLVESGGGLVQAGGSLRLSCAASGIISSYYAMGWYRQAPGKERELVAAISKSGGSTDYADSVKGRFTISRDNAKNTVYLQMNSLKPEDTAVYYCAADAYWSYSTRYWFAYDYWGQGTQVTVSS
polyreactivity (PSR sort gate): low polyreactivity

QVQLVESGGGLVQAGGSLRLSCAASGFIFGWNAMGWYRQAPGKVREFVAAITSSGTSTYYADSVKGRFTISRDNAKNTVYLQMNSLKPEDTAVYYCAADVIFTWLAYSTEYDYWGQGTQVTVSS
polyreactivity (PSR sort gate): low polyreactivity

QVQLVESGGGLVQAGGSLRLSCAASGFNFNKNAMGWYIQAPGKERELVASITASGTTTYADSVKGRFTISRDNAKNTVYLQMNSLKPEDTAVYYCAVRTRIWGFYYWGQGTQVTVSS
polyreactivity (PSR sort gate): high polyreactivity

QVQLVESGGGLVQAGGSLRLSCSASGSIFPTYAMGWYRKAPGKERELVAAIRSGSNTYYADSVKGRFTISRDNAKNTVYLQMNSLKPEDTAVYYCNKATNLSGGYDSWGQGTQVTVSS
polyreactivity (PSR sort gate): low polyreactivity

QVQLVESAGGLVQAGGSLRLSCAASGRIFGINSLGWYRQAPGKERELDAAISSGGSTYYADSVKGRFTISRDNAKYTVYILMNSEKPVDSAVYYCASDYDSSVCHDRGFWRDYWGQGNQVTVSS
polyreactivity (PSR sort gate): low polyreactivity

QGQHVESGGGLVQAGGSLRLSCAASGNILASNGMGWYRQAPGKERELVAAITFSGDTTYYADSVKGRFTISRDNAKNTVYLQMNSLKPEDTAVYYCNDGSFIVNGGYDGDYWGQGTQVTLSS
polyreactivity (PSR sort gate): low polyreactivity

QVQLVESGAGLVQAGGSLRLSCAASGSIFSYYVMGWYRQAPGKERELVAAISYSGGRTYYADSVKGSFTISRDNAKYTVYLQMNSLKPEDTAVYFCAASRRVGEVSYYYWGQGTQVTVSS
polyreactivity (PSR sort gate): high polyreactivity

QVQLVESGGGLVQAGGSLRLSCAASGRIFGTNAMGWYRPAPGKERELVADITSGGSTNYADSVKGRFTISRDNAKNTVYLQMNSLKPEDTAVYYCAAVLYSRLYWYRLDYWGQGTQVTVSS
polyreactivity (PSR sort gate): low polyreactivity

QVQLVETGGGLVQAGGSLRLSCAASGRIFEIYAMGWYRQAPGKERELVAAIDESGGSTYYADSVKGRFTISRDNGKNTVYLQMNSLKPEDTAVYYCATDDTWTITYGWYWFTYEYWGQCTQVTVSS
polyreactivity (PSR sort gate): low polyreactivity

QVQLVESGGVLVQAGGSLRLSCAASGFTLKWNAMGWYRQAPGKERELVARISRSGGSTNYADSVKGRFTISRDNAKNTVYLQMISLKPEDTAVFYCNTPSSREMDYWGQGTQVTVSS
polyreactivity (PSR sort gate): low polyreactivity

QVQLVESGGGLVQAGGSLRLSCAASGFTFEKNAMGWYGQAPGKERELVAAISRGGSTYADSVKGRFTISRDNAKTTVDLQMNSLKPEDTAVYYCAADTVYIFSSAINGEFGYWGQGTQVTVSS
polyreactivity (PSR sort gate): low polyreactivity

QVQLVDSCGGLVQAGGSLRLSCYDSGSTFPYKAMGWYRQAPGKERELVAAITSGASTNYADSVKGRFTISRDNAKNTVYLQMNSLTPEDTAVYYCAAQSYGKRIWSPRFQLNYWGQGTQVTVSS
polyreactivity (PSR sort gate): low polyreactivity

QVQLVESGGGLVQAGGSLRLSCAASGIIFPGYAMGWYRQAPGKERELVAAISSSGSSTYYADSVKGRFTISRDNGKNTVYLQMNSLKPEDTAVYYCAAVRYGLRRMDYWGQGTQVTVSS
polyreactivity (PSR sort gate): high polyreactivity

QVQLVESGGGLVQAGGSLRLSCAASGRTFRYNAMGWYRQAPGKERELVASITSGGSTNYADSVKGRFTISRDNAKNTVYLQMNSLKPEDTAVYYCAADERRPYWLHSIGSGRPFDYWGQGTQVTVSS
polyreactivity (PSR sort gate): low polyreactivity

QVQLVESGGGLVQAGGSLRLSCAASGRTFYVYAMGWYIQAPGKERELVAAISWGGGSTYYSDSVKGRFTISRDNAKNTVYLQMNSLKPEDTAVYFCAADKTRYRLGRDYWGQGTQVTVSS
polyreactivity (PSR sort gate): low polyreactivity

QVQLVESGGGLVQAGGSLRLSCAASGRIFSLYAMGWYRQAPGKERELVAAISSSGGRTYYADSVKGRFTISRDNAKNTVYLQMNSLKPEDTAVYYCADLVFSWWTFEYWGQGTQVTVSS
polyreactivity (PSR sort gate): high polyreactivity

QVQLVESGGGLVQAGGSLRLSCAASGSIFRRYAMGWYRQAPGKERELVAAISGSAGSTYYADSVKGRFTISRDNAKNTVYLQMNSLKPEDTAVYYCKTDRSRSPGDVESASDIKRDYWGQGTQVTVSS
polyreactivity (PSR sort gate): low polyreactivity

QVQLVESGGGLVQAGGSLRLSCAASVSTFSYNYMGWYRQAPRKERELDAAISSGGSTKYADSVKGRFRISRDNAKNTVYLQMNSLKPEDTAVYYCIKDYPQNPLPASSYYLYDYWGQGTQVTVSS
polyreactivity (PSR sort gate): high polyreactivity

QVQLHESGGGLVQSGGSLRLSCAASGTISYAGPMGWYPQAPGKEREFVAGIGVGSNTNYADSVKGRYTIIRDNAKNTVYLQMNSLKPVDTAVYYCAVGGYAPLGRPYCGQGTQVTVSS
polyreactivity (PSR sort gate): low polyreactivity

QVQLVESGGGLVQAGGSLRLSCAASGFTFAYYAMGWYRPAPGKERELVAAISSGGSTDYADSVKGRFTISRDNAKNTVYLQMNSLKPEDTAVYYCNAVVVRLWYDYDYWGQGTQVTVSS
polyreactivity (PSR sort gate): low polyreactivity

QVQHVESGGGLVQAGGSLRLSSAASGGTFNVYAMGWYRQAPGKESELVAAIRWSGGSTYYADSVKGRFTISRDNAKNTVYLQMNSLKPEDTAVYFCAARFYGRSQTYGSWGLGTQVTVSS
polyreactivity (PSR sort gate): high polyreactivity

QVQLVESGGGLVQAGGSLRLSCAASGSTFGYYAMGWYRQAPGKERELVADISKSSGSTYYADSVKGRFTISRDNAKNTVYLQMNSLKPEDTAVYYCNRRYYYRTYDYWGQGTQVTVSS
polyreactivity (PSR sort gate): high polyreactivity

QVQLVESGGGLVQAGGSLRLSCAASGNIFAYYAMGWYRQAPGKEREFVAAIRSSGVSTYYADSVKGRFTISRDNAKNTVYLQMNSLKPEDTAVYYCAADSITGGWLIVSPPYNYTYDYWGQGTQVTVSS
polyreactivity (PSR sort gate): low polyreactivity

QVQLVESGGGLVQAGGSLRLSCAASGSISRRYVMGWYRQAPGKERELVAAISTSGGSTYYADSVKGRFTISRDNAKNTVYLQMNSLKPEDTAVYYCAADLPVQGGFDYWGQGTQVTVSS
polyreactivity (PSR sort gate): low polyreactivity

QVQLVESGRGLVQAGGSLRLSCAASGRTFPVYAMGWYRQAPGKERELVAAITYSGGSTSYADSVKGRFTISRDNAKNTVYLQMNSLKPEDTAVYYCAADRAYYSRGIGSVGYYYWGQGTQVTVSS
polyreactivity (PSR sort gate): low polyreactivity

QVQHVESGGGLVQAGGSLRLICAASGSTFYYNAMGWYRQAPGKERELVAAISFSGGSTYYADSVKGRFTISRDNAKNTVYLQMNSLKPDDTAVYYCNRVYYAFYVYYYSTYDYWGQGTQVTLSS
polyreactivity (PSR sort gate): low polyreactivity

QVQLVESGGGLVQAGGSLRLSCAASGLIFGWYAMGWYRQAPGKERELVAGISGSGGITYYADSVKGRFTISRDNAKNTVYLQMNSLKPEDTAVYYCAARPGYVHIDFDYWGQGTQVTVSS
polyreactivity (PSR sort gate): low polyreactivity
